Laboratory results: article PMC3601010, “The complete N-terminal extension of heparin cofactor II is required for maximal effectiveness as a thrombin exosite 1 ligand” (BMC Biochemistry, 2013)

Tests used:
α-thrombin [1] = target: α-thrombin (UniProt P00734)
[2] = target: Biotinylated HCII 1-75 (human); test: SPR; BIAcore X, 25°C; biotinylated HCII 1-75 on streptavidin-coated chip; thrombin 0-30 μM flowed at 20 μL/minute in 10 mM HEPES, 150 mM NaCl, 0.005% Tween-20, pH 7.7; one site binding model of plateau responses
α-thrombin [3] = target: α-thrombin (UniProt P00734); remark: listed apart in the source
α-thrombin [4] = target: α-thrombin (UniProt P00734); test: ELISA; competition: HCII 1-75 immobilised on microtiter wells; competitor peptides added with 5 nM α-thrombin; ratio of absorbance with and without competitor; IC50 by linear regression of log-transformed plots
α-thrombin [5] = target: α-thrombin (UniProt P00734); remark: listed apart in the source
α-thrombin [6] = target: α-thrombin (UniProt P00734); test: SPR; competition: BIAcore X, 25°C; biotinylated HCII 1-75 on streptavidin-coated chip; peptides combined with 250 nM thrombin immediately before flowing over the chip; Ki from IC50 and the KD of 340 nM

| Kd [2] [nM] | Substance | IC50 (α-thrombin [4]) [nM] | concentration required to double the thrombin clotting time of diluted citrated human plasma (α-thrombin [5]) [µM] | Ki (α-thrombin [6]) [nM] | also measured |
| --- | --- | --- | --- | --- | --- |
|  | Biotinylated HCII 1-75 (domain or fragment) |  |  |  | concentration required to double the thrombin clotting time (data not shown) (α-thrombin [1]): 11.7 µM |
| 330 | FPR-ck-thrombin (thrombin inactivated at its active site using D-Phe-L-Pro-L-Arg chloromethylketone) (from UniProt P00734 364-622) (enzyme) |  |  |  |  |
|  | HCII 1-75 (recombinant peptide containing the first 75 residues of human heparin cofactor II and a nonapeptide N-terminal MGSH6 tag) (domain or fragment) | 11000 | 13 | 2600 | fold reduction of the apparent second-order rate constant of inhibition of 14 nM thrombin by 140 nM plasma-derived HCII with 55 μg/mL standard heparin, 250 μM peptide (Figure 5A) (α-thrombin [3]): 2.8 fold; fold reduction of the apparent second-order rate constant of inhibition of thrombin by plasma-derived HCII with 1.4 μM dermatan sulfate, 250 μM peptide (Figure 5B) (α-thrombin [3]): 7 fold; concentration required to double the thrombin clotting time, unmodified polypeptide compared with the biotinylated one (data not shown) (α-thrombin [1]): 12.8 µM |
|  | sulfo-Hir 54-65 (synthetic peptide containing the C-terminal 12 residues of hirudin variant 1, with Tyr63 sulfated) (from UniProt P01050 54-65) | 140 | 0.15 | 54 |  |
| 340 | α-thrombin (from UniProt P00734 364-622) (enzyme) |  |  |  |  |
